Measurements reported in paper PMC8345930, “Quaternary Structure and Hetero-Oligomerization of Recombinant Human Small Heat Shock Protein HspB7 (cvHsp)” (International Journal of Molecular Sciences, 2021).
Residue numbers refer to the chain shown, from its start. Names and notes keep the numbering of the source.

B1: HspB7 with Cys126 modified by iodoacetamide (natural protein)
chain: not shown
modifications: Cys126 modified by iodoacetamide
notes: HspB7 (cvHsp), human; full copy from Addgene #63108 in pET23b(+); the single SH group (Cys126) modified by iodoacetamide; Same construct as m1, chemically modified at Cys126; also called SH Mod HspB7-L
B2: Cys-mutant of HspB6 (C46S/E116C) (natural protein, human, UniProt O14558 1-160, looked up)
chain: MEIPVPVQPSWLRRASAPLPGLSAPGRLFDQRFGEGLLEAELAALSPTTLAPYYLRAPSVALPVAQVPTDPGHFSVLLDVKHFSPEEIAVKVVGEHVEVHARHEERPDEHGFVARCFHRRYRLPPGVDPAAVTSALSPEGVLSIQAAPASAQAPPPAAAK
notes: HspB6, human, with the double mutation C46S/E116C; single Cys in the β7 strand at the position homologous to Cys137 of HspB1; also called HspB6 Cys; HspB6 Cys^Ox
B3: wild-type HspB6 (natural protein, human, UniProt O14558 1-160, looked up)
chain: B2 chain with S46C, C116E
notes: HspB6, human, full-size wild type; The abstract says that the wild-type HspB6 was used in the ELISA
B4: Δ13 mutant of HspB7 (lacking the first 13 residues) (domain or fragment)
chain: not shown
notes: HspB7 (cvHsp), human, lacking the first 13 residues; made by PCR from the pET23b(+) HspB7 plasmid (forward primer with an NdeI site, ATG before the codon of residue 14); The printed forward primer places a start codon (Met) directly before residue 14; source: E. coli Rosetta2 (DE3) pLysS, purified
B5: recombinant human small heat shock protein HspB7 (cvHsp), wild type, untagged (natural protein)
chain: not shown
notes: HspB7 (cvHsp), human; full copy recloned from Addgene #63108 into pET23b(+) at NdeI and XhoI; single Cys126; calculated monomer weight 18.6 kDa; HspB7-D (small oligomers, probably dimers) and HspB7-L (mostly large oligomers) are two oligomeric preparations of the same construct; the assays tell them apart; also called cardiovascular Hsp; HspB7-D; source: E. coli Rosetta2 (DE3) pLysS, purified …
B6: Cys-mutant of HspB8 (C10S/C99S/C195S/N138C) (natural protein, human, UniProt Q9UJY1 1-196, looked up)
chain: MADGQMPFSSHYPSRLRRDPFRDSPLSSRLLDDGFGMDPFPDDLTASWPDWALPRLSSAWPGTLRSGMVPRGPTATARFGVPAEGRTPPPFPGEPWKVSVNVHSFKPEELMVKTKDGYVEVSGKHEEKQQEGGIVSKCFTKKIQLPAEVDPVTVFASLSPEGLLIIEAPQVPPYSTFGESSFNNELPQDSQEVTST
notes: HspB8, human, with the four mutations C10S/C99S/C195S/N138C; single Cys in the β7 strand at the position homologous to Cys137 of HspB1; also called HspB8 Cys; HspB8 Cys^Ox
B7: ΔSer mutant of HspB7 (lacking the polySer sequence, residues 17–29) (natural protein)
chain: not shown
notes: source: E. coli Rosetta2 (DE3) pLysS, purified

Legend:
[1] = molecular target: the molecule itself; experiment: SEC; HspB7-L (0.6 mg/mL) reduced with 3 mM DTT, Cys126 modified with 8 mM iodoacetamide, then analytical SEC on Superdex 200 Increase
[2] = molecular target: B5; experiment: SEC; oxidised (disulfide cross-linked) proteins alone or in equimolar mixture on Superdex 200 Increase GL 10/300; profile of the mixture compared with the arithmetic sum of the isolated proteins; details: both partners purified
[3] = molecular target: the molecule itself; experiment: cross-linking; disulfide cross-linking: reduced proteins alone or in equimolar mixture (15 µM each), 1 h at 42 °C, dialysed overnight at 37 °C against 50 mM Tris-HCl pH 8.0, 50 mM KCl, 0.1 mM PMSF; read by SDS-PAGE (HspB8) or urea gel electrophoresis (HspB6)
[4] = molecular target: B5; experiment: ELISA; sandwich: plate coated with monoclonal mouse anti-HspB6 antibody (clone 20-6) as capture; HspB6, HspB7 or their equimolar mixture added (25-400 ng of each protein per well), 1 h; HspB7 detected by rabbit polyclonal anti-HspB7 and HRP-conjugated anti-rabbit antibodies; details: both partners purified
[5] = molecular target: the molecule itself; experiment: SEC; Δ13 and ΔSer deletion mutants of HspB7; analytical Superdex 200 Increase 10/30 GL, 50 mM phosphate pH 7.4, 150 mM NaCl
[6] = molecular target: the molecule itself; experiment: SEC; HspB7-D preparation (flow-through of phenyl sepharose, Fraction 1); analytical Superdex 200 Increase 10/30 GL, 50 mM phosphate pH 7.4, 150 mM NaCl; 20, 50 or 100 μg loaded

Binder: B1
binding result [1]: binds

Binder: B2
binding result [2]: binds
binding result [3]: binds

Binder: B3
binding result [4]: binds

Binder: B4
binding result [5]: binds

Binder: B5
stoichiometry N [6]: ~2

Binder: B6
binding result [3]: binds

Binder: B7
binding result [5]: binds
